The results in this text go back to paper PMC3252255, “Heterologous overexpression of Glomerella cingulata FAD-dependent glucose dehydrogenase in Escherichia coli and Pichia pastoris” (Microbial Cell Factories, 2011).

Data set [1] deals with T1, recGcGDH (recombinant Glomerella cingulata FAD-dependent glucose dehydrogenase) (Colletotrichum gloeosporioides, UniProt G8E4B5).
T1 construct: gene gdh; native stop codon in primer, no tag; glycosylated, 88-131 kDa on SDS-PAGE, 67 kDa deglycosylated
T1 sequence (G8E4B5 17-600): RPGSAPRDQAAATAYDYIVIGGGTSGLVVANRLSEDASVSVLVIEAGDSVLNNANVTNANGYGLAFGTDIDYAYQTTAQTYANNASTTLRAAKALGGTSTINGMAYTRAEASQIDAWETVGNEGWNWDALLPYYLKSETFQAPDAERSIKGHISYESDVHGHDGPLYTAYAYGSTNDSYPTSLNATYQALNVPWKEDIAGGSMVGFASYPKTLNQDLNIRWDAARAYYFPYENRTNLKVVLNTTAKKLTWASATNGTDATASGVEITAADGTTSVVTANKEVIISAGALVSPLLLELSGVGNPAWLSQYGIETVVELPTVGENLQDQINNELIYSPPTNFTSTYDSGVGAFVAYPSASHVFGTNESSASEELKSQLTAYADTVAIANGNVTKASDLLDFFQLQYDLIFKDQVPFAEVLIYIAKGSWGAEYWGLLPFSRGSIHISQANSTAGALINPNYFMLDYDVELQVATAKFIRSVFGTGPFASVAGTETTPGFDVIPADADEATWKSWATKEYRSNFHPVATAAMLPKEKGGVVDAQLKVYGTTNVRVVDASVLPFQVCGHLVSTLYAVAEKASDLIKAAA
The data set is described as follows: UV/Vis absorption spectrum of purified enzyme, oxidized and glucose-reduced. Type of data set: binding. As to conditions: 50 mM citrate pH 5.5, room temperature; FAD bound as purified.

Substrate in data set [2]: OC[C@H]1OC(O)[C@H](O)[C@@H](O)[C@@H]1O
The experiment in a line: steady-state kinetics, spectrophotometric ferrocenium reduction. To be noted: pH 5.5, 30°C, ferrocenium hexafluorophosphate as electron acceptor (20 μM in table, 200 μM in methods), also measured at pH 7.5. The class given is biochemical, Colletotrichum gloeosporioides. From the text: steady-state kinetics, spectrophotometric ferrocenium reduction on recGcGDH (recombinant Glomerella cingulata FAD-dependent glucose dehydrogenase)

Regarding `Cc1cc2nc3c(=O)[nH]c(=O)nc-3n(C[C@H](O)[C@H](O)[C@H](O)COP(=O)(O)OP(=O)(O)OC[C@H]3O[C@@H](n4cnc5c(N)ncnc54)[C@H](O)[C@@H]3O)c2cc1C` [FAD], the “UV/Vis absorption spectrum of purified enzyme, oxidized and glucose-reduced” value in data set [1] is on record as “typical flavoprotein spectrum shows the same characteristics as the spectrum of wild-type GcGDH”.

B1: recGcGDH (recombinant Glomerella cingulata FAD-dependent glucose dehydrogenase) (Colletotrichum gloeosporioides) (protein)
chain: T1 sequence (G8E4B5 17-600)
notes: native stop codon in primer, no tag; glycosylated, 88-131 kDa on SDS-PAGE, 67 kDa deglycosylated
In the case of B1, in data set [2], the Michaelis constant (Km) (as a rule, the substrate concentration at which the rate is half of its maximum) was found to be 10.1 ± 0.4 mM; the kcat (usually the number of substrate molecules converted per active site and unit of time at saturation) came out at 179 ± 4 s⁻¹; the kcat/Km (usually the turnover number divided by the Michaelis constant) was determined as 17700 M⁻¹ s⁻¹.
